From patent US20190367620A1 (Merck KGaA, published 2019)
Residue numbers refer to the chain shown, from its start.

Experiments:
[1] = biological target: T1, Human FGFR1-IIIc D3-His6 (human, UniProt P11362 254-376); experiment: SPR (NBD indicates no binding detected)
T1 construct: also called D3 domain; F3FR1c-D3
T1 sequence: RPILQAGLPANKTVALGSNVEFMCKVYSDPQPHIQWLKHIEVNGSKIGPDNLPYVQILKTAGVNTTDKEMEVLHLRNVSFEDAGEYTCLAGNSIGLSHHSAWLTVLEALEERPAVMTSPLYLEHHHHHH

[2] = biological target: T2, FGFR1 D2 point mutant P57A (human, UniProt P11362 22-254); experiment: SPR as in Example 1.8
T2 chain: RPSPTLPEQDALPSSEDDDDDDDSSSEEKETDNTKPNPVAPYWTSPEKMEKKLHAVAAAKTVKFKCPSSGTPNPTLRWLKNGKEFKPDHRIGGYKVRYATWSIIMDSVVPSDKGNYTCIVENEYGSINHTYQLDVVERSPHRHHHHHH
Experimental: (§1) Binding affinities of anti-FGFR1 antibodies to FGFR1 were measured by Surface Plasmon Resonance (SPR) using a GE Healthcare BIAcore 4000 instrument as follows. Goat anti-human Fc antibody (Jackson ImmunoResearch Laboratories #109-005-098) was first immobilized on BIAcore carboxymethylated dextran CM5 chip using direct coupling to free amino groups following the procedure described by the manufacturer. Antibodies were then captured on the CM5 biosensor chip to achieve approximately 200 response units (RU). Binding measurements were performed using the running HBS-EP+ buffer. A 2-fold dilution series of His-tagged FGFR1 proteins were injected at a flow rate of 30 μl/min at 25° C. Association rates (kₒₙ, per mol/s) and dissociation rates (koff, per s) were calculated using a simple 1:1 Langmuir binding model (Biacore 4000 Evaluation Software). The equilibrium dissociation constant (KD, mol) was calculated as the ratio of koff/kₒₙ.
(§2) To obtain a finer, residue-level mapping of the epitope and to complement the HD exchange data, molecular modelling and manual inspection of the crystal structure of FGFR1 [(Beenken et al. 2012); PDB record 3OJV] was used to select solvent exposed residues within and around the epitope identified by HD exchange. The selected residues were mutated either to alanine (large to small) or to glycine if the selected residue was alanine. In total 35 point mutants were designed, expressed and purified in HEK cells, and tested for binding to mAb #A08 using surface plasmon resonance as described in Example 1.8. The affinity of the antibody for wild-type and each mutant was determined and used to calculate the contribution of each epitope residue to the binding energy.

[3] = biological target: T3, FGFR1 D2 point mutant K86A (human, UniProt P11362 22-254); experiment: SPR as in Example 1.8
T3 chain: T2 chain with A57P, K86A
Experimental: as §1, §2

[4] = biological target: T4, FGFR1 D2 point mutant V56A (human, UniProt P11362 22-254); experiment: SPR as in Example 1.8
T4 chain: T2 chain with V56A, A57P
Experimental: as §1, §2

[5] = biological target: T5, FGFR1 D2 point mutant K52A (human, UniProt P11362 22-254); experiment: SPR as in Example 1.8
T5 chain: T2 chain with K52A, A57P
Experimental: as §1, §2

[6] = biological target: T6, FGFR1 D2 point mutant E50A (human, UniProt P11362 22-254); experiment: SPR as in Example 1.8
T6 chain: T2 chain with E50A, A57P
Experimental: as §1, §2

[7] = biological target: T7, FGFR1 D2 point mutant S107A (human, UniProt P11362 22-254); experiment: SPR as in Example 1.8
T7 chain: T2 chain with A57P, S107A
Experimental: as §1, §2

[8] = biological target: T8, FGFR1 D2 point mutant D106A (human, UniProt P11362 22-254); experiment: SPR as in Example 1.8
T8 chain: T2 chain with A57P, D106A
Experimental: as §1, §2

[9] = biological target: T9, FGFR1 D2 point mutant R97A (human, UniProt P11362 22-254); experiment: SPR; free energy change relative to wild-type D2
T9 chain: T2 chain with A57P, R97A
In short: (§3)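 Point mutants of FGFR1 D2, expressed in HEK cells, were tested by SPR against mAb #A08 captured via anti-human Fc to ~200 RU, in HBS-EP+ at 25° C. KD came from a 1:1 Langmuir fit (koff/kon), and ΔΔG was derived from the ratio of wild-type to mutant KD.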

[10] = biological target: T2, FGFR1 D2 point mutant P57A; experiment: SPR; free energy change relative to wild-type D2
In short: as §3

[11] = biological target: T3, FGFR1 D2 point mutant K86A; experiment: SPR; free energy change relative to wild-type D2
In short: as §3

[12] = biological target: T8, FGFR1 D2 point mutant D106A; experiment: SPR; free energy change relative to wild-type D2
In short: as §3

B1: mAb #A08 (antibody, V domains shown)
VH: EVQLQESGPGLVKPSGTLSLTCAVSGGSISSNNWWSWVRQPPGKGLEWIGEIYHSGSTSYNPSLKSRVTISVDKSKNQFSLKLNSVTAADTAVYYCARGTDWFDPWGQGTLVTVSS
VL: QAVLTQPPSVSVAPGQTARITCGGNNIGSESVHWYQQKPGQAPVLVVYDDSDRPSGIPERFSGSNSGNTATLTISRVEAGDEADYYCQVWDSTSDHRVFGGGTKLTVL
notes: Only variable domains are tied to the name mAb #A08 (hit); also called #A08 hit; mAb #08
[1]
  binding result: no binding
[2]
  Kd: 0.41 nM
[3]
  Kd: 0.18 nM
[4]
  Kd: 0.27 nM
[5]
  Kd: 0.23 nM
[6]
  Kd: 0.2 nM
[7]
  Kd: 0.24 nM
[8]
  Kd: 4.93 nM
[9]
  ΔΔGmut: 1.83 kcal/mol
[10]
  ΔΔGmut: 0.44 kcal/mol
[11]
  ΔΔGmut: -0.06 kcal/mol
[12]
  ΔΔGmut: 1.92 kcal/mol
